The assay deals with mouse Notch1 on CD4+ T cells (mouse) (UniProt Q01705). In words: cell-based or functional assay.
UniProt Q01705, sequence (Q01705 19-2531): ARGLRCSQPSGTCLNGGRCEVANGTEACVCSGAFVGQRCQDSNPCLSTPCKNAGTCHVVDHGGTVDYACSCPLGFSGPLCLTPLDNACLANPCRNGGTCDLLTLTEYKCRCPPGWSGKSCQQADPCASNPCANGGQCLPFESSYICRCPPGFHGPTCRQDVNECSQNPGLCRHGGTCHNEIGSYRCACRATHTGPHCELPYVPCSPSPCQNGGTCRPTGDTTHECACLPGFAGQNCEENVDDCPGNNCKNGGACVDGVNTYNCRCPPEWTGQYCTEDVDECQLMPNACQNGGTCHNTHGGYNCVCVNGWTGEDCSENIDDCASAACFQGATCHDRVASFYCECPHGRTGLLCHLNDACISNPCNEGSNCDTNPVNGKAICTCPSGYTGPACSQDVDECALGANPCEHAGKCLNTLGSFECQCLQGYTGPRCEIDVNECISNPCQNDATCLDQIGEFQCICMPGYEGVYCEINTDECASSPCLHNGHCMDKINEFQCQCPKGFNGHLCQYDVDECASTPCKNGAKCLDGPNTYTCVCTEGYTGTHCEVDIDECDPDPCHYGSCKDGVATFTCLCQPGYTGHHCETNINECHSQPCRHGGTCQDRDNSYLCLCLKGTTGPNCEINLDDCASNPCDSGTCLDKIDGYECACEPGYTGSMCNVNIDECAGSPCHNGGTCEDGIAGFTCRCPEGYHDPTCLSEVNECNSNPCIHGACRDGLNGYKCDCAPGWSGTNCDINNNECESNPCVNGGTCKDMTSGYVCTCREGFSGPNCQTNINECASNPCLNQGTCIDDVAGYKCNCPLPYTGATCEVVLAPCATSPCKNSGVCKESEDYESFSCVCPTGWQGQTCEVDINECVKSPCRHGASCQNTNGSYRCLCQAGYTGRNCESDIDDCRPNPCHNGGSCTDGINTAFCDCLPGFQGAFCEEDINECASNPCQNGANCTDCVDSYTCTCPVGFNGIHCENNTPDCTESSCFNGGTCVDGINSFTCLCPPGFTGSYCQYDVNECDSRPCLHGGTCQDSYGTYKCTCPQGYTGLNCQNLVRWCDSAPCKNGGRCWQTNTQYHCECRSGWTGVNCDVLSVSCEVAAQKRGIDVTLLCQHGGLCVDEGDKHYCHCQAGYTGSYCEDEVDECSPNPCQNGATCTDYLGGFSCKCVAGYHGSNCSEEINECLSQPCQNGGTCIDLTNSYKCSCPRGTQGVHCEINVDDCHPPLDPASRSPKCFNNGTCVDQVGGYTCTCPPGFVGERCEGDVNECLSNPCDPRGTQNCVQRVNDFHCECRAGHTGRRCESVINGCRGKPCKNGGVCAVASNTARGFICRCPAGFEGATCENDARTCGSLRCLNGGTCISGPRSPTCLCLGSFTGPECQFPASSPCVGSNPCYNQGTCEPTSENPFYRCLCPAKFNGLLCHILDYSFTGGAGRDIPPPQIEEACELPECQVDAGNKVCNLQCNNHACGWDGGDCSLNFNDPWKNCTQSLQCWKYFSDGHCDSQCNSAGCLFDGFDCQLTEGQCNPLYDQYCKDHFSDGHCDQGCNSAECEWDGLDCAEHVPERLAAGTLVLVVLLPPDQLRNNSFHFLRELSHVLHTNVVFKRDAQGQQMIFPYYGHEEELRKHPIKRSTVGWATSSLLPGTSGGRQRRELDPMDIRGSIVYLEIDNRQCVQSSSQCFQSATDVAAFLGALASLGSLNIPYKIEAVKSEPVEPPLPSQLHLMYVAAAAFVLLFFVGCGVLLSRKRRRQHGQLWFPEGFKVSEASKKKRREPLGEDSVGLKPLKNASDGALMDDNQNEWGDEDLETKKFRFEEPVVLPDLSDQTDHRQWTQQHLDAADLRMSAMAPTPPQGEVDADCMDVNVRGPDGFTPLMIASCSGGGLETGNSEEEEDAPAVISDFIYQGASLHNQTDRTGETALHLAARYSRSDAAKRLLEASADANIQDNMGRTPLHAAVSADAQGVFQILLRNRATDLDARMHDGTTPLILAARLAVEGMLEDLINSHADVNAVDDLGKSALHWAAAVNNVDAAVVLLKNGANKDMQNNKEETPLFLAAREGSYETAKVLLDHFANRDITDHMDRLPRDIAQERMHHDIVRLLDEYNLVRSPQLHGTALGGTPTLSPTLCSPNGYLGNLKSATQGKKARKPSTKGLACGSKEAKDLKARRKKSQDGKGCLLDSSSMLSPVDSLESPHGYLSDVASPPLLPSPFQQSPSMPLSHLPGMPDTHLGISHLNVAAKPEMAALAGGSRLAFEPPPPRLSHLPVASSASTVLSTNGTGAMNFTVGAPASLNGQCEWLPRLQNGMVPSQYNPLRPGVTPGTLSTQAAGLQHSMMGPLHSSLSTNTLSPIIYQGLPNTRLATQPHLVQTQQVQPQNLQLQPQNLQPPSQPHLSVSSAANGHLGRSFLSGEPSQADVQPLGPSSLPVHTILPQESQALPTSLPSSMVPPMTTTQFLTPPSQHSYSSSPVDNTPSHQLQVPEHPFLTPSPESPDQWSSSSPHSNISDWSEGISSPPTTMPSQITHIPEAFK

In the case of “mouse delta-like ligand 4 (DLL4) on the surface of DLL4hiDCs (from UniProt Q9JI71 27-686)”, the percentage of DLL4hiDC-activated CD4+ T cells with high cleaved intracellular Notch (ICN) came out at 61%.

For the origin of these results see patent US20190134169A1.
